Assay results: PMC11068555

Experiments:
[1] = molecular target: SHC014 S Foldon his (prefusion stabilized spike ectodomain) (sarbecovirus SHC014 (clade 1a) | bacteriophage T4); experiment: native gel or EMSA
[2] = molecular target: WIV1 S Foldon his (prefusion stabilized spike ectodomain) (sarbecovirus WIV1 (clade 1a) | bacteriophage T4); experiment: native gel or EMSA

Substance: SHC014 S Foldon his (prefusion stabilized spike ectodomain) (domain or fragment)
- stoichiometry N [1]: 3

Substance: WIV1 S Foldon his (prefusion stabilized spike ectodomain) (domain or fragment)
- stoichiometry N [2]: 3
